Data as given in patent US20250084188A1 (CHUNGBUK NATIONAL UNIVERSITY INDUSTRY ACADEMIC COOPERATION …, published 2025).

Molecular target: T1, human chitinase-3-like protein 1 (hCHI3L1) (human, UniProt P36222 22-383)
T1 construct: Antigen used for phage display panning and ELISA; also called YKL-40; CHI3L1 antigen protein
Assay: monoclonal phage ELISA, phage-displayed Fab on CHI3L1

T1 sequence (P36222 22-383 limits assumed): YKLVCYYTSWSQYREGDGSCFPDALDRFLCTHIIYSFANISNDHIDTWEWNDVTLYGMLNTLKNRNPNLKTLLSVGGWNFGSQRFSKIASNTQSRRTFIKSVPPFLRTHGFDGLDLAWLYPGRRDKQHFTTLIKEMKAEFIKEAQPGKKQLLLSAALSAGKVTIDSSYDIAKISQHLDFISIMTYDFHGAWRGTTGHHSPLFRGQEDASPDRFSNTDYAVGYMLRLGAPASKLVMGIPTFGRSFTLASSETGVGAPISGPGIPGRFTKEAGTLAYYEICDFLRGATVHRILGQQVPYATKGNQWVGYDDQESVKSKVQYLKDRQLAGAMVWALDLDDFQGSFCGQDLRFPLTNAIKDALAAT

Row | Binder | binding result
1 | D2 Fab clone (phage-displayed) (Fab, V domains shown) VH: EVQLVESGGGLVQPGGSLRLSCAASGFTFSSYAMHWVRQAPGKGLEWVSAISSSSGTIYYADSVKGRFTISRDNSKNTLYLQMNSLRAEDTAVYYCAKDFGAVFDYWGQGTLVTVSS VL: not shown | binds
2 | F2 Fab clone (phage-displayed) (Fab, V domains shown) VH: EVQLVESGGGLAQPGGSLRLSCAASGFTFSSYAMHWVRQAPGKGLEWVSSIKSSGGSKNYADSVKGRFTISRDNSKNTLYLQMNSLRAEDTAVYYCAKGYGASFDFWGQGTLVTVSS VL: DIQMTQSPSSLSASVGDRVTITCRASQDISSWLNWYQQKPGKAPKLLIYAASRLQSGVPSRFSGSGSGTDFTLTISSLQPEDFATYYCQQAYSFPWTFGQGTKVEIK | binds
3 | 1E12 Fab clone (phage-displayed) (Fab, V domains shown) VH: EVQLVESGGGLVQPGGSLRLSCAASGFTFSSYAMHWVRQAPGKGLEWVSAISSSGGTKYYADSVKGRFTISRDNSKNTLYLQMNSLRAEDTAVYYCAKGLQGGAGAFDIWGQGTLVTVSS VL: DIQMTQSPSSLSASVGDRVTITCRASQSISNYLNWYQQKPGKAPKLLIYATSTLHSGVPSRFSGSGSGTDFTLTISSLQPEDFATYYCQQSYSFPWTFGQGTKVEIK | binds
4 | F4 Fab clone (phage-displayed) (Fab, V domains shown) VH: not shown VL: DIQMTQSPSSLSASVGDRVTITCRASQSISRWLNWYQQKPGKAPKLLIYAASRLQSGVPSRFSGSGSGTDFTLTISSLQPEDFATYYCQQSYSTPWTFGQGTKVEIK | binds
5 | E7 Fab clone (phage-displayed) (Fab, V domains shown) VH: EVQLVESGGGLVQPGGSLRLSCAASGFTFSSYAMHWVRQAPGKGLEWVSAISSSGGSIYYADSVKGRFTISRDNSKNTLYLQMNSLRAEDTAVYYCAKQGLSFDIWGQGTLVTVSS VL: DIQMTQSPSSLSASVGDRVTITCRASQSISNWLNWYQQKPGKAPKLLIYATSRLQSGVPSRFSGSGSGTDFTLTISSLQPEDFATYYCQQSYSFPYTFGQGTKVEIK | binds
6 | C5 Fab clone (phage-displayed) (Fab, V domains shown) VH: EVQLVESGGGLVQPGGSLRLSCAASGFTFSSYAMSWVRQAPGKGLEWVSSISSSSGTTHYADSVKGRFTISRDNSKNTLYLQMNSLRAEDTAVYYCAKGGAFDYWGQGTLVTVSS VL: DIQMTQSPSSLSASVGDRVTITCRASQDISRWLNWYQQKPGKAPKLLIYAASTLQSGVPSRFSGSGSGTDFTLTISSLQPEDFATYYCQQSYSFPLTFGQGTKVEIK | binds
7 | A7 Fab clone (phage-displayed) (Fab, V domains shown) VH: EVQLVESGGGLVQPGGSLRLSCAASGFTFSDYAMSWVRQAPGKGLEWVSGISSSGGTIYYADSVKGRFTISRDNSKNTLYLQMNSLRAEDTAVYYCAKAIGSWADIWGQGTLVTVSS VL: DIQMTQSPSSLSASVGDRVTITCRASQDISNYLNWYQQKPGKAPKLLIYAASSLQSGVPSRFSGSGSGTDFTLTISSLQPEDFATYYCQQSYSFPYTFGQGTKVEIK | binds
8 | H7 Fab clone (phage-displayed) (Fab, V domains shown) VH: EVQLVESGGGLVQPGGSLRLSCAASGFTFSSYGMHWVRQAPGKGLEWVSGISSSGGSKYYADSVKGRFTISRDNSKNTLYLQMNSLRAEDTAVYYCAKHGHQQMDFWGQGTLVTVSS VL: DIQMTQSPSSLSASVGDRVTITCRASQSISSWLNWYQQKPGKAPKLLIYAASRLQSGVPSRFSGSGSGTDFTLTISSLQPEDFATYYCQQTYSFPWTFGQGTKVEIK | binds
9 | H1 Fab clone (phage-displayed) (Fab, V domains shown) VH: EVQLVESGGGLVQPGGSLRLSCAASGFTFSSYAMSWVRQAPGKGLEWVSAIRSSGGTTYYADSVKGRFTISRDNSKNTLYLQMNSLRAEDTAVYYCAKSQSTVADYWGQGTLVTVSS VL: DIQMTQSPSSLSASVGDRVTITCRASQSISNWLNWYQQKPGKAPKLLIYATSRLQSGVPSRFSGSGSGTDFTLTISSLQPEDFATYYCQQSYSFPLTFGQGTKVEIK | binds
10 | A5 Fab clone (phage-displayed) (Fab, V domains shown) VH: not shown VL: DIQMTQSPSSLSASVGDRVTITCRASQSISRWLNWYQQKPGKAPKLLIYATSTLQSGVPSRFSGSGSGTDFTLTISSLQPEDFATYYCQQSYSFPWTFGQGTKVEIK | binds

Molecular target: T1, human chitinase-3-like protein 1 …
Assay: ELISA, purified IgG on CHI3L1 antigen protein

Row | Binder | binding result
11 | D2 (IgG) (antibody, V domains shown, Converted into the IgG form of human antibodies, expressed in ExpiCHO-S) VH: EVQLVESGGGLVQPGGSLRLSCAASGFTFSSYAMHWVRQAPGKGLEWVSAISSSSGTIYYADSVKGRFTISRDNSKNTLYLQMNSLRAEDTAVYYCAKDFGAVFDYWGQGTLVTVSS VL: not shown | binds
12 | F4 (IgG) (antibody, V domains shown, Converted into the IgG form of human antibodies, expressed in ExpiCHO-S) VH: not shown VL: DIQMTQSPSSLSASVGDRVTITCRASQSISRWLNWYQQKPGKAPKLLIYAASRLQSGVPSRFSGSGSGTDFTLTISSLQPEDFATYYCQQSYSTPWTFGQGTKVEIK | binds
13 | H7 (IgG) (antibody, V domains shown, Converted into the IgG form of human antibodies, expressed in ExpiCHO-S) VH: EVQLVESGGGLVQPGGSLRLSCAASGFTFSSYGMHWVRQAPGKGLEWVSGISSSGGSKYYADSVKGRFTISRDNSKNTLYLQMNSLRAEDTAVYYCAKHGHQQMDFWGQGTLVTVSS VL: DIQMTQSPSSLSASVGDRVTITCRASQSISSWLNWYQQKPGKAPKLLIYAASRLQSGVPSRFSGSGSGTDFTLTISSLQPEDFATYYCQQTYSFPWTFGQGTKVEIK | binds
14 | A7 (IgG) (antibody, V domains shown, Converted into the IgG form of human antibodies, expressed in ExpiCHO-S) VH: EVQLVESGGGLVQPGGSLRLSCAASGFTFSDYAMSWVRQAPGKGLEWVSGISSSGGTIYYADSVKGRFTISRDNSKNTLYLQMNSLRAEDTAVYYCAKAIGSWADIWGQGTLVTVSS VL: DIQMTQSPSSLSASVGDRVTITCRASQDISNYLNWYQQKPGKAPKLLIYAASSLQSGVPSRFSGSGSGTDFTLTISSLQPEDFATYYCQQSYSFPYTFGQGTKVEIK | binds
15 | E7 (IgG) (antibody, V domains shown, Converted into the IgG form of human antibodies, expressed in ExpiCHO-S) VH: EVQLVESGGGLVQPGGSLRLSCAASGFTFSSYAMHWVRQAPGKGLEWVSAISSSGGSIYYADSVKGRFTISRDNSKNTLYLQMNSLRAEDTAVYYCAKQGLSFDIWGQGTLVTVSS VL: DIQMTQSPSSLSASVGDRVTITCRASQSISNWLNWYQQKPGKAPKLLIYATSRLQSGVPSRFSGSGSGTDFTLTISSLQPEDFATYYCQQSYSFPYTFGQGTKVEIK | binds
16 | C5 (IgG) (antibody, V domains shown, Converted into the IgG form of human antibodies, expressed in ExpiCHO-S) VH: EVQLVESGGGLVQPGGSLRLSCAASGFTFSSYAMSWVRQAPGKGLEWVSSISSSSGTTHYADSVKGRFTISRDNSKNTLYLQMNSLRAEDTAVYYCAKGGAFDYWGQGTLVTVSS VL: DIQMTQSPSSLSASVGDRVTITCRASQDISRWLNWYQQKPGKAPKLLIYAASTLQSGVPSRFSGSGSGTDFTLTISSLQPEDFATYYCQQSYSFPLTFGQGTKVEIK | binds
17 | F2 (IgG) (antibody, V domains shown, Converted into the IgG form of human antibodies, expressed in ExpiCHO-S) VH: EVQLVESGGGLAQPGGSLRLSCAASGFTFSSYAMHWVRQAPGKGLEWVSSIKSSGGSKNYADSVKGRFTISRDNSKNTLYLQMNSLRAEDTAVYYCAKGYGASFDFWGQGTLVTVSS VL: DIQMTQSPSSLSASVGDRVTITCRASQDISSWLNWYQQKPGKAPKLLIYAASRLQSGVPSRFSGSGSGTDFTLTISSLQPEDFATYYCQQAYSFPWTFGQGTKVEIK | binds
18 | 1E12 (IgG) (antibody, V domains shown, Converted into the IgG form of human antibodies, expressed in ExpiCHO-S) VH: EVQLVESGGGLVQPGGSLRLSCAASGFTFSSYAMHWVRQAPGKGLEWVSAISSSGGTKYYADSVKGRFTISRDNSKNTLYLQMNSLRAEDTAVYYCAKGLQGGAGAFDIWGQGTLVTVSS VL: DIQMTQSPSSLSASVGDRVTITCRASQSISNYLNWYQQKPGKAPKLLIYATSTLHSGVPSRFSGSGSGTDFTLTISSLQPEDFATYYCQQSYSFPWTFGQGTKVEIK | binds
19 | H1 (IgG) (antibody, V domains shown, Converted into the IgG form of human antibodies, expressed in ExpiCHO-S) VH: EVQLVESGGGLVQPGGSLRLSCAASGFTFSSYAMSWVRQAPGKGLEWVSAIRSSGGTTYYADSVKGRFTISRDNSKNTLYLQMNSLRAEDTAVYYCAKSQSTVADYWGQGTLVTVSS VL: DIQMTQSPSSLSASVGDRVTITCRASQSISNWLNWYQQKPGKAPKLLIYATSRLQSGVPSRFSGSGSGTDFTLTISSLQPEDFATYYCQQSYSFPLTFGQGTKVEIK | binds
20 | A5 (IgG) (antibody, V domains shown, Converted into the IgG form of human antibodies, expressed in ExpiCHO-S) VH: not shown VL: DIQMTQSPSSLSASVGDRVTITCRASQSISRWLNWYQQKPGKAPKLLIYATSTLQSGVPSRFSGSGSGTDFTLTISSLQPEDFATYYCQQSYSFPWTFGQGTKVEIK | binds
